# Data taken from patent US20200277385A1 (LABORATOIRE FRANCAIS DU FRACTIONNEMENT ET DES …, published 2020).
# Changes are numbered by the printed parent chain.
# T1: human CD303 antigen expressed on cells (human, UniProt Q8WTT0 1-213)
# T1 sequence: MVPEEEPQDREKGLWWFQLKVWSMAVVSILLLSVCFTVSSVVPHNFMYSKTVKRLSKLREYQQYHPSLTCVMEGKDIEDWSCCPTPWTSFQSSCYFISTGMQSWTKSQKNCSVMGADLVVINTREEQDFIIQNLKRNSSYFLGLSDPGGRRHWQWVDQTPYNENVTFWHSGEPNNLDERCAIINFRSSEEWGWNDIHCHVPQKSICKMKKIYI
# T2: CD303 ectodomain (human, UniProt Q8WTT0 45-213)
# T2 construct: also called ectodomain of the human CD303 antigen
# T2 sequence: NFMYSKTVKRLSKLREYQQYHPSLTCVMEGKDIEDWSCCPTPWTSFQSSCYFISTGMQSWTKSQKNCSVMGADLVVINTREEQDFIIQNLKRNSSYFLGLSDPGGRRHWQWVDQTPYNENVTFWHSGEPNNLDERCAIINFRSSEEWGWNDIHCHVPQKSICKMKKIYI
# B1: chimeric antibody 104C12 (antibody, human IgG1, kappa)
# heavy: not shown
# light: DLQMTQTPSSLSASLGDRVTISCRASQDINNYLSWYQEKPDGTFKLLIYYTSRLHSGVPSRFSGSGSGTDYSLTVRNLEQEDIGTYFCQQGKTLPWTFGGGTKLEIRRTVAAPSVFIFPPSDEQLKSGTASVVCLLNNFYPREAKVQWKVDNALQSGNSQESVTEQDSKDSTYSLSSTLTLSKADYEKHKVYACEVTHQGLSSPVTKSFNRGEC
# notes: Produced in YB2/0
# B2: humanized antibody 102E9H10 (antibody, human IgG1, kappa, V domains shown)
# VH: QIHLVQSGPELKKPGESVKISCKASGYTFTDYSMHWVRQAPGQGLKWMGWINTETGEPTYAQDFKGRFVFSLDTSVSTAYLQINSLKNEDTSTYYCTRNGYYVGYYAMDYWGQGTSVTVSS
# VL: QIQLTQSPSFLSASPGERVTITCSASSSVIYIHWFQQKPGTAPKLWIYSTSYLASGVPSRFSGSGSGTSYTLTISRMEAEDFATYYCQQRRSYPFTFGGGTKLEIKR
# B3: humanized antibody 102E9H9 (antibody, human IgG1, kappa, V domains shown)
# VH: B2 VH with R38K, Q62D
# VL: B2 VL
# B4: humanized antibody 102E9H6 (antibody, human IgG1, kappa)
# heavy: not shown
# light: QIQLTQSPSFLSASPGERVTITCSASSSVIYIHWFQQKPGKAPKLWIYSTSYLASGVPSRFSGSGSGTEYTLTISSMEAEDFATYYCQQRRSYPFTFGGGTKLEIKRTVAAPSVFIFPPSDEQLKSGTASVVCLLNNFYPREAKVQWKVDNALQSGNSQESVTEQDSKDSTYSLSSTLTLSKADYEKHKVYACEVTHQGLSSPVTKSFNRGEC
# B5: humanized antibody 102E9H7 (antibody, human IgG1, kappa)
# heavy: not shown
# light: B4 light
# B6: humanized antibody 122A2H5 (antibody, human IgG1, kappa)
# heavy: not shown
# light: DIQMTQSTSSLSASLGDRVTITCQASQDISNYLNWYQQKPDGTVKLLIYYTSRLHTGVPSRFSGSGSGTDYSLTISNLDQEDIATYYCQQGNTLPWTFGGGTKLEIKRTVAAPSVFIFPPSDEQLKSGTASVVCLLNNFYPREAKVQWKVDNALQSGNSQESVTEQDSKDSTYSLSSTLTLSKADYEKHKVYACEVTHQGLSSPVTKSFNRGEC
# B7: humanized antibody 122A2H15 (antibody, human IgG1, kappa, V domains shown)
# VH: QVQLQQSGAEVVKPGASVKISCKGSGYTFTDYSMHWVRQAPGQGLEWIGVISTYYGDSNYNQKFKGKVTMTVDKSSSTAYMELSRLTSDDTAVYYCARNGNFYVMDYWGQGTLVTVSS
# VL: DIQMTQSTSSLSASLGDRVTITCQASQDISNYLNWYQQKPDGTVKLLIYYTSNLHTGVPSRFSGSGSGTDYSLTISNLQQEDIATYYCQQGNTLPWTFGGGTKLEIKR
# B8: humanized antibody 122A2H9 (antibody, human IgG1, kappa)
# heavy: not shown
# light: B6 light with T8P, L15V
# B9: humanized antibody 122A2H14 (antibody, human IgG1, kappa, V domains shown)
# VH: B7 VH with P41H, G42A, Q43K, G44S, K74T, T87R
# VL: B7 VL
# B10: humanized antibody 122A2H10 (antibody, human IgG1, kappa, V domains shown)
# VH: B7 VH with P41H, G42A, Q43K, G44S, K74T, T87R
# VL: B7 VL with T8P, L15V, N53R, Q79D
# B11: humanized antibody 122A2H7 (antibody, human IgG1, kappa, V domains shown)
# VH: B7 VH
# VL: B7 VL with N53R, Q79D
# B12: chimeric antibody 104E10 (antibody, human IgG1, kappa)
# heavy: not shown
# light: QIVLTQSPAIMSASPGEKVTMTCSASSSVIYMHWFQQKPGTSPKLWIYSTSNLASGVPARFSGSGSGTSYSLTISRMEAEDAATYYCQQRRSYPYTFGGGTKLEIKRTVAAPSVFIFPPSDEQLKSGTASVVCLLNNFYPREAKVQWKVDNALQSGNSQESVTEQDSKDSTYSLSSTLTLSKADYEKHKVYACEVTHQGLSSPVTKSFNRGEC
# notes: Produced in YB2/0
# B13: chimeric antibody 114D11 (antibody, human IgG1, kappa)
# heavy: not shown
# light: B12 light with M21I, I30F
# notes: Produced in YB2/0
# Legend:
# [1] = target: T1, human CD303 antigen expressed on cells; test: cell-based or functional assay
# [2] = target: T1, human CD303 antigen expressed on cells; test: flow cytometry on CAL-1 cells
# Method: (§1) The CD303-expressing cells and the antibodies are prepared in diluent (PBS+1% FCS). 1·10⁵ cells are incubated at 4° C. for 30 minutes with 100 μL of antibody (anti-CD303 or negative control) at various concentrations (0-40 μg/mL, final concentration).
# (§2) After washing with the diluent, the antibodies are visualized by addition of a phycoerythrin (PE)-coupled goat anti-mouse IgG F(ab′)₂ fragment (100 μL diluted to 1:100 in the diluent) for 45 minutes at 4° C. The cells are then washed and analyzed by flow cytometry (FC500, Beckman Coulter).
# [3] = target: T1, human CD303 antigen expressed on cells; test: flow cytometry on Fcγ chain-CD303 Jurkat cells
# Method: as §1, §2
# FcγRIIIa (CD16a) [4] = target: T3, FcγRIIIa (CD16a) (UniProt P08637 17-254, limits assumed); test: competition with 3G8-PE for CD16 on NK cells, flow cytometry
# T3 construct: whole, on cells; also called Fcγ receptor III
# T3 sequence (P08637 17-254 limits assumed): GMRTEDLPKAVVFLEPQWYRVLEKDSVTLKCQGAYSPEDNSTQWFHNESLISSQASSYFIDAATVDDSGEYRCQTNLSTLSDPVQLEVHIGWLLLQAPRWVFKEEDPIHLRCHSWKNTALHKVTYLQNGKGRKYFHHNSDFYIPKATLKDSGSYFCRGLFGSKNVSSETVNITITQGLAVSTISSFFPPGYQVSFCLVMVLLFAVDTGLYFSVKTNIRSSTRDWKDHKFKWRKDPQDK
# CD303 ectodomain = target: T2, CD303 ectodomain; test: ELISA on coated CD303 ectodomain, 5 ng/mL antibody
# Method: This technique, which uses a colorimetric approach, makes it possible to detect and visualize antigen-antibody interactions. The principle of ELISA is, first, to coat each well of a MaxiSorp plate with 10 ng of the antigen, in this case the CD303 ectodomain. The latter was purchased from the supplier Mybiosource. Second, the various antibodies produced, contained in the supernatant, are all diluted to the same concentration, and contacted with the antigen to allow them to bind. A third step consists in adding the secondary antibodies, HRP-conjugated anti-human antibody, necessary for amplified detection of the antigen-binding of the anti-CD303 antibodies. Lastly, detection is carried out using a solution containing the substrate for the enzyme (3,3′,5,5′-tetramethylbenzidine, or TMB). The appearance of coloring of the substrate indicates the formation of the antigen-antibody complex. The intensity of this coloring is proportional to the amount of enzyme present and thus to the amount of antibody tested bound to the antigen. The reaction is stopped by adding H₂SO₄ (acid). These colors are read using a spectrophotometer at a wavelength of 450 nm.
# A concentration of 5 ng/mL is used to classify the humanized antibodies (FIG. 10).
# [5] = target: T1, human CD303 antigen expressed on cells; test: cell-based or functional assay; remark: listed apart in the source
# [6] = target: T1, human CD303 antigen expressed on cells; test: flow cytometry on CAL-1 cells, 0.1 µg/mL, supernatant
# Method: The line used to carry out this technique, CAL-1, is a leukemic cell line of plasmacytoid dendritic cells obtained from a BPDCN patient. The antibodies produced were tested in supernatant, but also in forms purified by affinity chromatography with protein A-sepharose (not elaborated upon herein).
# For cell staining, the cells and the antibodies are prediluted with PBS/1% FCS. In a 100 μL reaction volume, 1·10⁵ cells are incubated at 4° C. for 30 minutes with the anti-CD303 antibodies to be tested, at two concentrations: 0.1 μg/mL or 1 μg/mL. This incubation is followed with several washings. The cell/antibody complexes thus formed are then contacted for 30 minutes at 4° C. with the secondary antibody diluted 1:50, an anti-human IgG Fc F(ab′)₂ coupled to a fluorochrome, phycoerythrin. […] Various negative controls are used to eliminate possible nonspecific binding, such as: the cells alone or directly in contact with the secondary antibody, or replacing the antibody tested with an irrelevant chimeric antibody (factor VIII anti-idiotype).
# FcγRIIIa (CD16a) [7] = target: T3, FcγRIIIa (CD16a); test: cell-based or functional assay
binder,measurement,setting,value
B1,"ADCC EC50, Fcγ chain-CD303 Jurkat target cells with NK cells",[1],0.000214 µg/mL
same,"ADCC Emax (% lysis), Fcγ chain-CD303 Jurkat target cells with NK cells",[1],41.8 % lysis
same,Bmax (MFI),[2],29 MFI
same,EC50,[2],0.345 µg/mL
same,Bmax (MFI),[3],27.7 MFI
same,EC50,[3],0.178 µg/mL
same,IC50,FcγRIIIa (CD16a) [4],26.8 µg/mL
B2,CD303 ectodomain-binding capacity relative to chimeric antibody 102E9,CD303 ectodomain,80%
B3,CD303 ectodomain-binding capacity relative to chimeric antibody 102E9,CD303 ectodomain,71%
B4,CD303 ectodomain-binding capacity relative to chimeric antibody 102E9,CD303 ectodomain,73%
B5,CD303 ectodomain-binding capacity relative to chimeric antibody 102E9,CD303 ectodomain,76%
B6,IC50 for IFN-α secretion from pDCs contained in PBMCs,[5],0.819 ng/mL
B7,binding result,[6],binds
B8,IC50 for IFN-α secretion from pDCs contained in PBMCs,[5],0.911 ng/mL
same,"IL-2 secretion by CD16 Jurkat cells: 50%, with ch122A2 = 1 (Mean)",FcγRIIIa (CD16a) [7],0.73 ratio to ch122A2
same,"IL-2 secretion by CD16 Jurkat cells: 50%, with ch122A2 = 1 (experiment 2126 16 057)",FcγRIIIa (CD16a) [7],0.66 ratio to ch122A2
same,"IL-2 secretion by CD16 Jurkat cells: 50%, with ch122A2 = 1 (experiment 2126 16 059)",FcγRIIIa (CD16a) [7],0.78 ratio to ch122A2
same,"IL-2 secretion by CD16 Jurkat cells: 50%, with ch122A2 = 1 (experiment 2126 16 066)",FcγRIIIa (CD16a) [7],0.74 ratio to ch122A2
B9,binding result,[6],binds
B10,IC50 for IFN-α secretion from pDCs contained in PBMCs,[5],0.947 ng/mL
B11,IC50 for IFN-α secretion from pDCs contained in PBMCs,[5],0.865 ng/mL
B12,"ADCC EC50, Fcγ chain-CD303 Jurkat target cells with NK cells",[1],0.00828 µg/mL
same,"ADCC Emax (% lysis), Fcγ chain-CD303 Jurkat target cells with NK cells",[1],40.5 % lysis
same,Bmax (MFI),[2],29.2 MFI
same,EC50,[2],1.93 µg/mL
same,Bmax (MFI),[3],23.7 MFI
same,EC50,[3],6.06 µg/mL
same,IC50,FcγRIIIa (CD16a) [4],18.1 µg/mL
B13,"ADCC EC50, Fcγ chain-CD303 Jurkat target cells with NK cells",[1],0.00361 µg/mL
same,"ADCC Emax (% lysis), Fcγ chain-CD303 Jurkat target cells with NK cells",[1],37.4 % lysis
same,Bmax (MFI),[2],30.1 MFI
same,EC50,[2],1.7 µg/mL
same,Bmax (MFI),[3],24.7 MFI
same,EC50,[3],3.98 µg/mL
same,IC50,FcγRIIIa (CD16a) [4],45 µg/mL
